According to patent US20140162951A1:

Target: recombinant enovin (mature human enovin with NH2-terminal 6xHis tag, expressed from hEVNmat/pRSETB in E. coli) (human)
Experiment: SPR (BIAcore 3000), enovin immobilized, soluble GFRα3-Fc at three concentrations

B1: soluble GFRα-3 IgG1-Fc fusion protein (Fc fusion, UniProt O60609 28-371, looked up, not shown: a dimerising Fc or GST)
chain: LAAGDPLPTESRLMNSCLQARRKCQADPTCSAAYHHLDSCTSSISTPLPSEEPSVPADCLEAAQQLRNSSLIGCMCHRRMKNQVACLDIYWTVHRARSLGNYELDVSPYEDTVTSKPWKMNLSKLNMLKPDSDLCLKFAMLCTLNDKCDRLRKAYGEACSGPHCQRHVCLRQLLTFFEKAAEPHAQGLLLCPCAPNDRGCGERRRNTIAPNCALPPVAPNCLELRRLCFSDPLCRSRLVDFQTHCHPMDILGTCATEQSRCLRAYLGLIGTAMTPNFVSNVNTSVALSCTCRGSGNLQEECEMLEGFFSHNPCLTEAIAAKMRFHSQLFSQDWPHPTFAVMAHQ
Kd: 3.1 nM | koff: 0.000508 s⁻¹ | kon: 165000 M⁻¹ s⁻¹
